{"source": "patent US7740850B2", "about": "“PDGFRβ-specific antibodies” (ImClone, LLC, priority 2007, dated 2010)", "key": {"β1-3": {"test_system": "β1-3", "assay": "Epitope mapping, shorter version of PDGFRβ (D1D2D3)", "assay_type": "binding", "details": "✓ / X, key not given", "protocol": "(§1) 2C5 binds to domain 1 (D1) and domain 2 (D2) of PDGFRβ. Various chimeric constructs of PDGFRβ and PDGFRα were first made by domain swapping, starting from N-terminus to C-terminus with PDGFRβ domain(s) replacing PDGFRα domain(s). The PDGFRβ/α chimera were tested for the ability of 2C5 binding. Shorter versions of PDGFRβ, including D1D2, D2D3 and D1D2D3, were then made to confirm the 2C5 binding domains on PDGFRβ."}, "OVCAR8 cells": {"test_system": "OVCAR8 cells", "assay": "PDGF-BB-stimulated cell migration, two-chamber technique", "assay_type": "cell-based, human", "details": "antibody 30 μg/ml, PDGF-BB 100 ng/ml, 4 hours", "protocol": "(§2) 2C5 inhibits PDGF-BB-stimulated cell migration in a cell-based migration assay. Two-chamber technique was used to determine the inhibitory ability of 2C5 in cell migration with NCI-H460, OVCAR8, WS-1 and U-118 cell lines. Collagen (100 μg/ml) was added to the up chamber (100 μl) and the lower chamber (150 μl) and incubated at 37° C. for 1 hour. After washing the chambers twice with PBS, 100 μl of starved cells (estimated 0.5-10×10^6/ml in serum-free medium) were added to the up chamber and 150 μl of serum-free medium was added to the lower chamber and then incubated at 37° C. for 4 hours. […] In 2C5 wells, 2C5 were added into the up chamber at a final concentration of 30 μg/ml. Non-migrated cells in the up chamber were scraped from the membrane. After washing three times with PBS, migrated cells on the membrane of the lower chamber side were fixed with 4% formalin and stained with Hoechst (4 μg/ml). The results were captured and cells were counted under fluorescence microscopy."}, "NCI-H460 cells": {"test_system": "NCI-H460 cells", "assay": "PDGF-BB-stimulated cell migration, two-chamber technique", "assay_type": "cell-based, human", "details": "antibody 30 μg/ml, PDGF-BB 100 ng/ml, 4 hours", "protocol": "as §2"}, "WS-1 cells": {"test_system": "WS-1 cells", "assay": "PDGF-BB-stimulated cell migration, two-chamber technique", "assay_type": "cell-based", "details": "antibody 30 μg/ml, PDGF-BB 100 ng/ml, 4 hours", "protocol": "as §2"}, "U-118 cells": {"test_system": "U-118 cells", "assay": "PDGF-BB-stimulated cell migration, two-chamber technique", "assay_type": "cell-based", "details": "antibody 30 μg/ml, PDGF-BB 100 ng/ml, 4 hours", "protocol": "as §2"}, "3β2α": {"test_system": "3β2α", "assay": "Epitope mapping, PDGFRβ/α chimera", "assay_type": "binding", "details": "✓ / X, key not given", "protocol": "as §1"}, "PDGFRβ": {"test_system": "PDGFRβ", "assay": "Epitope mapping, binding domains", "details": "chimeric and shorter PDGFRβ constructs", "protocol": "as §1"}, "m5β": {"molecular_target": "T1, m5β (Mus musculus, UniProt P05622)", "T1 sequence (P05622 32-531 limits assumed)": "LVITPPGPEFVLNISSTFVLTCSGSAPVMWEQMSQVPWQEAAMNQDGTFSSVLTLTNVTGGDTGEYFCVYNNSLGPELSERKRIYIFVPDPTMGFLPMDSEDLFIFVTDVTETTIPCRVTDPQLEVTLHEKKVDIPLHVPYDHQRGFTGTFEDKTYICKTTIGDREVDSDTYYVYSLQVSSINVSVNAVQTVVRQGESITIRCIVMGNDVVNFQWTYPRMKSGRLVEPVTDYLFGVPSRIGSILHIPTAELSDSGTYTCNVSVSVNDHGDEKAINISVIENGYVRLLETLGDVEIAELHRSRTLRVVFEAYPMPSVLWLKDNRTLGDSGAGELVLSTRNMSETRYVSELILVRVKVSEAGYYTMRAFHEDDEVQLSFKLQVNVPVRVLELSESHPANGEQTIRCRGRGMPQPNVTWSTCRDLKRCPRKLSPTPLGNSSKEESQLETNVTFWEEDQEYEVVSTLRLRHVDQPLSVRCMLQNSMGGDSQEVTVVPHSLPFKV", "assay": "Epitope mapping", "assay_type": "binding", "details": "✓ / X, key not given", "protocol": "as §1"}, "human PDGFRβ": {"test_system": "human PDGFRβ", "sequence (P09619 33-532 limits assumed)": "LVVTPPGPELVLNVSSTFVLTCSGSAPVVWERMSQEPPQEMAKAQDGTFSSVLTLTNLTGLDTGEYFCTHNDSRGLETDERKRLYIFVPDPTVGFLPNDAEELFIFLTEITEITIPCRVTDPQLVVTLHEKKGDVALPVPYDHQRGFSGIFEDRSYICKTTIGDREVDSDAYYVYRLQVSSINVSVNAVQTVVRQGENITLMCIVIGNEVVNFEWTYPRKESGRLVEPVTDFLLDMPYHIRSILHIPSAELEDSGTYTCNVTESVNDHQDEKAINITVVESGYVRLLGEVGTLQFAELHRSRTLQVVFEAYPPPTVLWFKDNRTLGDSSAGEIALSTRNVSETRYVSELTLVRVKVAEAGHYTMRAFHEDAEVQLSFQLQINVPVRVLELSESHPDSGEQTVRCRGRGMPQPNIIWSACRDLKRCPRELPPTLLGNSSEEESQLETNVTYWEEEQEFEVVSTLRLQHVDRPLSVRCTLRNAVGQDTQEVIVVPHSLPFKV", "assay": "Cross-reactivity binding test (soluble recombinant protein or cell-surface receptor on human tumor cell lines)", "details": "soluble recombinant protein or cell-surface-expressed receptor on human tumor cell lines"}, "human xenograft tumors": {"test_system": "human xenograft tumors", "assay": "Human tumor xenograft models in athymic nude mice (statements over several models)", "assay_type": "in vivo", "details": "all six xenograft models, i.p. up to 60 mg/kg", "protocol": "Antitumor activity of anti-mPDGFRβ antibody in tumor xenograft models. Six human xenograft tumor models, including three ovarian carcinoma (SK-OV-3, OV-CAR-5 and OV-CAR-8), one pancreatic carcinoma (BxPC3), one lung carcinoma (NCI-H460), and one kidney carcinoma (Caki-1), were used to assess the antitumor activity of 1B3 in vivo. Athymic (nu/nu) mice (female, 7-8 weeks of age) were housed for 7-10 days before xenograft implantation. Each mouse was injected subcutaneously with 3-10×10^6 cells of SK-OV-3, OVCAR-5, OVCAR-8, Caki-1, BxPC3 or NCI-H460 tumor cells. When tumors reached approximately 250-300 mm^3, mice were randomized into groups of 10 to 12 animals each and treated by intraperitoneal injection, 2 to 3 times per week, with 1B3, DC101, or 1B3 in combination with DC101. Human IgG and/or USP saline were used as control groups. Tumor sizes and mouse body weight were measured twice a week. Tumor volume was calculated using the formula: π/6×(length×width^2), where length=longest diameter and width=diameter perpendicular to length. The ratio of average tumor volume in the treatment group versus that in the control group (T/C %) was calculated. Statistic analysis was performed by Student's t-test.\nThe xenograft cell lines were BxPC-3, MIA-PaCa-2, Detroit-562, HCT-8, NCI-H460, NCI-H292, and HCT-116. […] (FIG. 10 and Table 3). […]"}, "[1]": {"test_system": "SK-OV-3 ovarian carcinoma xenograft", "assay": "Subcutaneous tumor xenograft model", "assay_type": "in vivo, mouse", "protocol": "Six xenograft models, SK-OV-3, OV-CAR-8, BxPC-3, OV-CAR-5, Caki-1 and NCI-H460 (A to F, respectively) were used to examine the effects of 1B3 on xenograft tumors in athymic nude mice. Mice with established tumors (˜250-300 mm^3) were randomly grouped and treated with 1B3, normal human IgG, or saline by intraperitoneal injection twice weekly (except for BxPC-3 model where the mice were treated three times a week) at the dose indicated. Tumor volumes were measured twice a week and are presented as mean±SEM. *1 indicates the loss of one mouse due to severe illness. 1B3 binds to mouse, but not human, PDGFRβ. Accordingly, the observed responses to treatment result from inhibition of stimulation of host cells.\nAntitumor activity of anti-mPDGFRβ antibody in tumor xenograft models. Six human xenograft tumor models, including three ovarian carcinoma (SK-OV-3, OV-CAR-5 and OV-CAR-8), one pancreatic carcinoma (BxPC3), one lung carcinoma (NCI-H460), and one kidney carcinoma (Caki-1), were used to assess the antitumor activity of 1B3 in vivo. […] Tumor sizes and mouse body weight were measured twice a week. Tumor volume was calculated using the formula: π/6×(length×width^2), where length=longest diameter and width=diameter perpendicular to length. The ratio of average tumor volume in the treatment group versus that in the control group (T/C %) was calculated. […]"}}}
{"molecule": "2C5: PDGFRβ-specific human antibody binding both human and murine PDGFRβ; SEQ ID NOS in Table 1 (antibody, listed as Homo sapiens, V domains shown) VH: QVQLVQSGAEVKKPGSSVKVSCKASGGTFSSYAISWVRQAPGQGLEWMGRIIPILGIANYAQKFQGRVTITADKSTSTAYMELSSLRSEDTAVYYCARDMGSRNYYYFYWGQGTLVTVSS VL: EIVLTQSPATLSLSPGERATLSCRASQSVGRYLAWYQQKPGQAPRLLIYGASNRATGIPARFSGSGSGTDFTLTISSLEPEDFAVYYCQQRSNWPLTFGGGTKVEIK", "values": [{"measurement": "binding to β1-3", "setting": "β1-3", "value": "✓"}, {"measurement": "inhibition of PDGF-BB-stimulated cell migration", "setting": "OVCAR8 cells", "value": "inhibited PDGF-BB-stimulated cell migration completely"}, {"measurement": "inhibition of PDGF-BB-stimulated cell migration", "setting": "NCI-H460 cells", "value": "inhibited PDGF-BB-stimulated cell migration completely"}, {"measurement": "inhibition of PDGF-BB-stimulated cell migration", "setting": "WS-1 cells", "value": "inhibited PDGF-BB-stimulated cell migration completely"}, {"measurement": "inhibition of PDGF-BB-stimulated cell migration", "setting": "U-118 cells", "value": "inhibited PDGF-BB-stimulated cell migration completely"}, {"measurement": "binding to 3β2α", "setting": "3β2α", "value": "✓"}, {"measurement": "binding domains on PDGFRβ", "setting": "PDGFRβ", "value": "binds to PDGFRβ via both D1 and D2 of the receptor"}, {"measurement": "binding to m5β", "setting": "m5β", "value": "✓"}]}
{"molecule": "1B3: human anti-mouse PDGFRβ antibody from Fab phage display library, human κ/γ1 constant regions; SEQ ID NOS in Table 1 (antibody, listed as Homo sapiens, V domains shown, human kappa/gamma1 constant regions) VH: QVQLQESGGGLVKPGGSLRLSCAASGFTFSSYSMNWVRQAPGKGLEWVSSISSSSSYIYYADSVKGRFTISRDNSKNTLYLQMNSLRAEDTAVYYCAKGGRPLLVFDFWGQGTLVTVS VL: EIVMTQSPGTLSLSPGERATLSCRASQSVSSSYLAWYQQKPGQAPRLLIYDASKRATGIPARFSGSGSGTDFTLTISTLESEDSAVYYCQQRGYWPPITFGQGTRLEIKR", "values": [{"measurement": "cross-reactivity, binding to human PDGFRβ", "setting": "human PDGFRβ", "value": "No cross-reactivity was observed"}, {"measurement": "overt toxicity, including changes in body weight and animal behavior", "setting": "human xenograft tumors", "value": "did not cause any overt toxicity"}, {"measurement": "tumor growth inhibition", "setting": "[1]; 60 mg/kg i.p. twice weekly", "value": "completely blocked the tumor growth for up to 29 days"}, {"measurement": "tumor growth inhibition", "setting": "[1]; two lower doses (6, 20 mg/kg) i.p. twice weekly", "value": "No tumor growth inhibition was observed"}]}
